Molecular target: human CCR5 (human, UniProt P51681 1-352)
Test: cell-based or functional assay

Chain of human CCR5 (P51681 whole entry): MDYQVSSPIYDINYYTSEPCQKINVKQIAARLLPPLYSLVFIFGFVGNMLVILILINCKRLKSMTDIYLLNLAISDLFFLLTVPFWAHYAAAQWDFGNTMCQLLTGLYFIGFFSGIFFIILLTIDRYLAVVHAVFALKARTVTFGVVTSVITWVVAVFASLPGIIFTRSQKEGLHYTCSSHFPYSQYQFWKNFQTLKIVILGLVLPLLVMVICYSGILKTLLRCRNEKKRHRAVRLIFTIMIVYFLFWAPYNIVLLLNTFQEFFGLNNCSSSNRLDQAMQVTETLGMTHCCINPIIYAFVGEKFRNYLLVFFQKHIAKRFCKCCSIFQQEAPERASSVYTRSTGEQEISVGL

Binder | IC50, antiviral assay in PBMC (HIV-1 NLBal, p24 ELISA) [nM]
AA-2320 (antibody) chain 1: EVKLVESGGGLVKPGGSLKLSCAASGFTFSTYAMSWVRQTPEKRLEWVASISTGDNTYYTDSVRGRFTISRDNARNILYLQMSSLRSEDTAMYFCTRGRGDRGDLFGYWGQGTLVTVSS chain 2: GGGGSGGGGSEVKLVESGGGLVKPGGSLKLSCAASGFTFSTYAMSWVRQTPEKRLEWVASISTGDNTYYTDSVRGRFTISRDNARNILYLQMSSLRSEDTAMYFCTRGRGDRGDLFGYWGQGTLVTVSSGGGGSGGGGSGGGGSDIVMSQSPSSLAVSVGEKVTMSCKSSQSLLYRGNQMNYLAWYQQKPGQSPKLLIYWASTRESGVPDRFTGSGSGTEFTLTISSVKAEDLTVYYCQQYYTYPRTFGGGTKLEIKR chain 3: DIVMSQSPSSLAVSVGEKVTMSCKSSQSLLYRGNQMNYLAWYQQKPGQSPKLLIYWASTRESGVPDRFTGSGSGTEFTLTISSVKAEDLTVYYCQQYYTYPRTFGGGTKLEIKR | 0.088
AN-1000 (antibody, V domains shown) VH: EVKLVESGGGLVKPGGSLKLSCAASGFTFSTYAMSWVRQTPEKRLEWVASISTGDNTYYTDSVRGRFTISRDNARNILYLQMSSLRSEDTAMYFCTRGRGDRGDLFGYWGQGTLVTVSS VL: DIVMSQSPSSLAVSVGEKVTMSCKSSQSLLYRGNQMNYLAWYQQKPGQSPKLLIYWASTRESGVPDRFTGSGSGTEFTLTISSVKAEDLTVYYCQQYYTYPRTFGGGTKLEIKR | 0.988
